Test results published in the supplement of paper PMC7877785.
± gives the uncertainty stated by the source.

Test: self-splicing fitness, log relative to wild type (ln ratio); higher = more splicing; Tetrahymena group I intron in knt gene, E. coli kanamycin selection, DiMSum; sequences stand for … in CUCUCU…GGAGGGAAAAGUUAUCAGGCAUGCACCUGGUAGCUAGUCUUUAAACCAAUAGAUUGCAUCGGUUUAAAAGGCAAGACCGUCAAAUUGCGGGAAAGGGGUCAACAGCCGUUCAGUACCAAGUCUCAGGGGAAACUUUGAGAUGGCCUUGCAAAGGGUAUGGUAAUAAGCUGACGGACAUGGUCCUAACCACGCAGCCAAGUCCUAAGUCAACAGAUCUUCUGUUGAUAUGGAUGCAGUUCACAGACUAAAUGUCGGUCGGGGAAGAUGUAUUCUUCUCAUAAGAUAUAGUCGGACCUCUCCUUAAUGGGAGCUAGCGGAUGAAGUGAUGCAACACUGGAGCCGCUGGGAACUAAUUUGUAUGCGAAAGUAUAUUGAUUAGUUUUGGAGUACUCGUGGUCG
Method in brief: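 A randomised library covering all eight P1ex-region intron nucleotides was built with the intron in the knt kanamycin-resistance gene on pET-22b(+) and held in E. coli BL21(DE3). Cells were grown overnight at 37°C or 30°C on LB agar, with or without 25 μg/mL kanamycin, plus 100 μg/mL carbenicillin, 50 μM IPTG and 0.2% rhamnose, and pooled colonies were amplicon-sequenced on an Illumina HiSeq 2500. DiMSum fitness is the error-weighted combination of wild-type-normalised replicate fold changes, kanamycin versus none.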

Row | Sequence | self-splicing fitness (ln) (30 °C) | self-splicing fitness (ln) (37 °C)
1 | CAGAAGCAAUAUUACGCGGC | -0.924 ± 0.15 | 
2 | CAGAAGCAAUAUUACGCUAA | -4.46 ± 0.42 | -1.97 ± 0.26
3 | CAGAAGCAAUAUUACGCUGC |  | -2.34 ± 0.49
4 | CAGAAGCAAUAUUACGGACG | -0.743 ± 0.092 | -0.739 ± 0.12
5 | CAGAAGCAAUAUUACGGGAU | -3.18 ± 0.17 | -2.9 ± 0.2
6 | CAGAAGCAAUAUUACGGGGG | -3.09 ± 0.16 | -2.75 ± 0.21
7 | CAGAAGCAAUAUUACGGUGG | -1.26 ± 0.067 | -1.12 ± 0.079
8 | CAGAAGCAAUAUUACGGUUA | -2.25 ± 0.13 | -1.72 ± 0.12
9 | CAGAAGCAAUAUUACGUAGA | -3.54 ± 0.1 | -0.762 ± 0.075
10 | CAGAAGCAAUAUUACGUGUA | -3.81 ± 0.17 | -1.25 ± 0.094
11 | CAGAAGCAAUAUUACGUUCC |  | -1.75 ± 0.47
12 | CAGCAGCAAUAUUACGAACG | -0.451 ± 0.073 | 0.304 ± 0.11
13 | CAGCAGCAAUAUUACGACCA | -1.88 ± 0.19 | -1.22 ± 0.18
14 | CAGCAGCAAUAUUACGAGGA | -2.63 ± 0.2 | -2.42 ± 0.23
15 | CAGCAGCAAUAUUACGCACA | -0.847 ± 0.088 | -0.607 ± 0.093
16 | CAGCAGCAAUAUUACGCAUA | -1.81 ± 0.14 | -1.43 ± 0.17
17 | CAGCAGCAAUAUUACGCCCA | -1.98 ± 0.14 | -0.0298 ± 0.12
18 | CAGCAGCAAUAUUACGCCCC | -1.87 ± 0.48 | -0.533 ± 0.43
19 | CAGCAGCAAUAUUACGCCUU | -0.761 ± 0.097 | -0.274 ± 0.1
20 | CAGCAGCAAUAUUACGCGAA | -2.55 ± 0.13 | -1.82 ± 0.15
21 | CAGCAGCAAUAUUACGCGUG | -3.2 ± 0.18 | -1.92 ± 0.15
22 | CAGCAGCAAUAUUACGGCCU | -0.922 ± 0.1 | -0.208 ± 0.12
23 | CAGCAGCAAUAUUACGGCUG | -4.48 ± 0.25 | -1.82 ± 0.19
24 | CAGCAGCAAUAUUACGGGCU | -3.74 ± 0.17 | -2.51 ± 0.16
25 | CAGCAGCAAUAUUACGGGGG | -1.63 ± 0.076 | -1.54 ± 0.11

Row | Sequence | self-splicing fitness (ln) (30 °C) | self-splicing fitness (ln) (37 °C)
26 | CAGCAGCAAUAUUACGGUGU | -3.61 ± 0.15 | -2.72 ± 0.17
27 | CAGCAGCAAUAUUACGUAAG | -0.365 ± 0.046 | 0.0316 ± 0.067
28 | CAGCAGCAAUAUUACGUACG | -0.121 ± 0.08 | 0.866 ± 0.11
29 | CAGCAGCAAUAUUACGUAGC | -4.02 ± 0.28 | -2.94 ± 0.26
30 | CAGCAGCAAUAUUACGUCCG | 0.0818 ± 0.076 | 0.283 ± 0.086
31 | CAGCAGCAAUAUUACGUCUU | -0.473 ± 0.053 | 0.3 ± 0.07
32 | CAGCAGCAAUAUUACGUGCC | -3.2 ± 0.17 | -2.05 ± 0.21
33 | CAGCAGCAAUAUUACGUUAG | -1.17 ± 0.063 | -0.421 ± 0.078
34 | CAGGAGCAAUAUUACGAACU | -3.14 ± 0.34 | -3.19 ± 0.32
35 | CAGGAGCAAUAUUACGACGU | -3.17 ± 0.16 | -2.13 ± 0.2
36 | CAGGAGCAAUAUUACGAUGU | -4 ± 0.21 | -2.91 ± 0.17
37 | CAGGAGCAAUAUUACGCAAU |  | -1.35 ± 0.27
38 | CAGGAGCAAUAUUACGCACG | -1.71 ± 0.088 | 0.544 ± 0.15
39 | CAGGAGCAAUAUUACGCGCG | -1.45 ± 0.14 | -0.0818 ± 0.14
40 | CAGGAGCAAUAUUACGCUAA | -3.29 ± 0.5 | -1.19 ± 0.41
41 | CAGGAGCAAUAUUACGCUAC | -1.78 ± 0.4 | 
42 | CAGGAGCAAUAUUACGCUAU | -3.39 ± 0.4 | -2.39 ± 0.24
43 | CAGGAGCAAUAUUACGGAAA | -2.58 ± 0.14 | -2.59 ± 0.23
44 | CAGGAGCAAUAUUACGGAAU | -2.62 ± 0.29 | -2.58 ± 0.39
45 | CAGGAGCAAUAUUACGGAGU | -2.74 ± 0.17 | -2.21 ± 0.25
46 | CAGGAGCAAUAUUACGGAUC | -4.29 ± 0.23 | -3.84 ± 0.34
47 | CAGGAGCAAUAUUACGGAUG | -2.46 ± 0.13 | -2.02 ± 0.17
48 | CAGGAGCAAUAUUACGGCGC | -3.61 ± 0.36 | -3.31 ± 0.16
49 | CAGGAGCAAUAUUACGGGCG | -0.762 ± 0.099 | 0.0758 ± 0.14
